What all share (conditions): one partner purified
Assay [1] addresses T1, MBP-tagged full-length (FL) WhNV protein A (Wuhan nodavirus (WhNV), UniProt Q3KSM3 1-1014).
T1 construct: also called MBP-protA; 1–1014 MBP/protA; source: E. coli strain TB1, purified (amylose resin); not shown: MBP, N-terminal, kept
T1 sequence: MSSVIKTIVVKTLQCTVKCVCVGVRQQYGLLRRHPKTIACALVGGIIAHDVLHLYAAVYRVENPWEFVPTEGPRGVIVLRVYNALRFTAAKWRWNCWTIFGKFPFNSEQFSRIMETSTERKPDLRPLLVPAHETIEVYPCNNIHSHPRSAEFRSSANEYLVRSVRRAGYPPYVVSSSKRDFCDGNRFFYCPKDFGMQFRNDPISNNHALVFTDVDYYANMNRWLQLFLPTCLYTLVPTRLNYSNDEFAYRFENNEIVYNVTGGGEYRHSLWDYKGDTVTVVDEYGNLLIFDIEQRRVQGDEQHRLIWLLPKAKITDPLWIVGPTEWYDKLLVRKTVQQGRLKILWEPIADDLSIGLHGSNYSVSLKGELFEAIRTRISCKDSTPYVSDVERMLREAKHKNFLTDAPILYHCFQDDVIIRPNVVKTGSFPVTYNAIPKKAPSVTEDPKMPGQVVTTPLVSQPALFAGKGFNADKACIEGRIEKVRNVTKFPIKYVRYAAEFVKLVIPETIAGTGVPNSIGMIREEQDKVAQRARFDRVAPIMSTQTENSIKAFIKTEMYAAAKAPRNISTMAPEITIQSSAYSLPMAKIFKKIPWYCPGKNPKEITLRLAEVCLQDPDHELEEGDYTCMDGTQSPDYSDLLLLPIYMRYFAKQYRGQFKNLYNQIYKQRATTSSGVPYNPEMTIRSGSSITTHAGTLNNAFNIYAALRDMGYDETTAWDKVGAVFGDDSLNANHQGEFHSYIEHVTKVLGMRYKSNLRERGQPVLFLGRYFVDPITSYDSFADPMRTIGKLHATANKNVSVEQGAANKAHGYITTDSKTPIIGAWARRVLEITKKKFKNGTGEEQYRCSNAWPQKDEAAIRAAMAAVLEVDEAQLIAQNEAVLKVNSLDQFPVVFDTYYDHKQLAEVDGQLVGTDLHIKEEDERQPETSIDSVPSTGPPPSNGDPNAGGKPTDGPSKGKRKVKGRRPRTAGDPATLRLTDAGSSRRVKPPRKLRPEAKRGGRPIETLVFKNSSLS
Description: pull-down.

Assay [2] addresses T2, MBP-protA fragment aa 1–839 (Wuhan nodavirus (WhNV), UniProt Q3KSM3 1-839).
T2 construct: also called 1–839 MBP/protA; source: E. coli strain TB1, purified (amylose resin); not shown: MBP, N-terminal, kept
T2 sequence: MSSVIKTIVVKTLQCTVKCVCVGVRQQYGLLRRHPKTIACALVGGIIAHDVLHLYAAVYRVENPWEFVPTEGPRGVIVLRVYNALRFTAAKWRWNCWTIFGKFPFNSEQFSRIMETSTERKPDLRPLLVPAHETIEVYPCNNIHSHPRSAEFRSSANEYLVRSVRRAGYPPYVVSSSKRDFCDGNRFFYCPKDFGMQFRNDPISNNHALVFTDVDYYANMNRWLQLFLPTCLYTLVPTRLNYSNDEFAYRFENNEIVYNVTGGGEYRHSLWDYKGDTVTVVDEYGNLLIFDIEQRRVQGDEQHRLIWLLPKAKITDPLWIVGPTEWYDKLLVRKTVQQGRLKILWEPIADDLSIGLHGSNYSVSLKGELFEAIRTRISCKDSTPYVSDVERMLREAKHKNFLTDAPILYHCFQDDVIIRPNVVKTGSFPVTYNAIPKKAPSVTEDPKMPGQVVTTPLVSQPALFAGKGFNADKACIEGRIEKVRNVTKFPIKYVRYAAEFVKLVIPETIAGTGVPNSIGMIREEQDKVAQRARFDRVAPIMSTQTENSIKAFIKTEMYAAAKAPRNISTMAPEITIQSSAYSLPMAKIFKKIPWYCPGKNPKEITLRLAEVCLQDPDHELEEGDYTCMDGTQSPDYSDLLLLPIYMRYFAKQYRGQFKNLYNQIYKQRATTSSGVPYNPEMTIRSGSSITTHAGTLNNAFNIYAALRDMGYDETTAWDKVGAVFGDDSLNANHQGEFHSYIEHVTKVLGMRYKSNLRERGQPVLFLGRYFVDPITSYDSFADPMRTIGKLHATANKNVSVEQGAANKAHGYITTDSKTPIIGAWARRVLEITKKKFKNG
Description: pull-down; MBP fusion protein (1 µM) held on amylose resin, His-tagged protein (1 µM) in vitro translated in rabbit reticulocyte lysate; room temperature, 4 hrs; no lipids; Western blot with anti-His; signals given as % of FL to FL protein A self-interaction. In general terms: A western blot detects proteins with antibodies after separation by electrophoresis.

Assay [3] has as its target T3, MBP-protA fragment aa 255–480 (Wuhan nodavirus (WhNV), UniProt Q3KSM3 255-480).
T3 construct: source: E. coli strain TB1, purified (amylose resin); not shown: MBP, N-terminal, kept
T3 sequence: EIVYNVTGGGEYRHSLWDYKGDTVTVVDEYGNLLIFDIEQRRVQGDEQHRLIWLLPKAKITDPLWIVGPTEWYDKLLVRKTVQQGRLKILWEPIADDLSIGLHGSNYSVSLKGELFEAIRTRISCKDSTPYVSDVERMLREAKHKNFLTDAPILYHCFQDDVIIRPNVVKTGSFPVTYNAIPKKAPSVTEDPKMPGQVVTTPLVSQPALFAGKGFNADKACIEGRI
The assay is described as above.

B1: His-tagged WhNV protein A, in vitro translated (natural protein)
chain: T1 sequence
notes: also called His-protA; FL His-protA; source: in vitro translated in nuclease-treated rabbit reticulocyte lysates
On to B1, for which, in assay [1], the “fold of the self-interaction without MMLs, at 1 µg/µl MMLs” value is about 4.6 fold; the “fold of the self-interaction without MMLs, at 2 µg/µl MMLs” value was about 9 fold; the “fold of the self-interaction without MMLs, at 5 µg/µl MMLs” value is about 12 fold. Also, the “self-interaction efficiency, % of FL to FL protein A self-interaction” value in assay [2] was 108%. The “self-interaction efficiency, % of FL to FL protein A self-interaction” value in assay [3] is 52%.

(Values after PMC3934934, “The Self-Interaction of a Nodavirus Replicase Is Enhanced by Mitochondrial Membrane Lipids” (PLoS ONE, 2014).)
